Results taken from paper PMC5503512, “The complex of TRIP-Br1 and XIAP ubiquitinates and degrades multiple adenylyl cyclase isoforms” (eLife, 2017).

Assays:
[1] = biological target: T1, FLAG-His-tagged AC1-M (AC1 amino acids 236-612) (bovine, UniProt P19754 236-612); assay: pull-down; pairwise pull-down, two purified proteins from E. coli, 5 μg of each, FLAG-His-tagged AC1 fragment held on anti-FLAG M2 affinity gel, Co-IP buffer, 500 μL, 2 hr at 4°C; washed with PBS containing 1% Triton X-100; western blot; settings: both partners purified
T1 construct: Ends of the tags as in the printed name His-AC1-M-FLAG; also called His-AC1-M-FLAG; M, cytosolic region between the 2 transmembrane domains; not shown: His, N-terminal, kept; FLAG, C-terminal, kept
T1 sequence (P19754 236-612): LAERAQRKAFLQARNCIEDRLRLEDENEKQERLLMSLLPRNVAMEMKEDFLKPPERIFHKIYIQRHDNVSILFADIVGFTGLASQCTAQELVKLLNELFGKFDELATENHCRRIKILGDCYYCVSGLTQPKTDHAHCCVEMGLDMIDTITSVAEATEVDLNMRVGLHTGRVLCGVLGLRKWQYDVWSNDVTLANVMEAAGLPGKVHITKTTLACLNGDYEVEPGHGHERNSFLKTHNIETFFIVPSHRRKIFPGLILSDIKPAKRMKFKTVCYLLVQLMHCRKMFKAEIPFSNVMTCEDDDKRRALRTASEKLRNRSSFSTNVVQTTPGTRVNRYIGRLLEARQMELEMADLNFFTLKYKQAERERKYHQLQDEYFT

[2] = biological target: T2, His-XIAP purified from E. coli (human, UniProt P98170 1-497); assay: pull-down; GST, GST-TRIP-Br1 or GST-TRIP-Br1 truncation mutants used to capture His-XIAP purified from E. coli; settings: both partners purified
T2 construct: also called purified XIAP; source: E. coli BL21, purified (Ni-NTA, with 200 μM zinc sulfate)
T2 sequence (P98170 whole entry, the tested form may be a part): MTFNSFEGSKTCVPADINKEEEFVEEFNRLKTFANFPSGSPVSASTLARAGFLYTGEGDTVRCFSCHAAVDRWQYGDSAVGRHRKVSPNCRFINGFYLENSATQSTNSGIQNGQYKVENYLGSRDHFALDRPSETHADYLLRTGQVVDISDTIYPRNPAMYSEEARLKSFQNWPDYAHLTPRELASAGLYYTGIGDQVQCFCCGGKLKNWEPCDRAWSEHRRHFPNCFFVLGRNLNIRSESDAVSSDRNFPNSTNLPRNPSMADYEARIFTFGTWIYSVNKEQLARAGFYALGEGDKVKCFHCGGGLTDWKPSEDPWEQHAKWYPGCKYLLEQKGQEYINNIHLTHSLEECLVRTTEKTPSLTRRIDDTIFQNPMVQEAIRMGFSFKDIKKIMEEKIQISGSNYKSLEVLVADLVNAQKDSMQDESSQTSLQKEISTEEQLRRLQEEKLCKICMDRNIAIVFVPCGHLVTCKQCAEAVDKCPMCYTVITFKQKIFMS

| binding result [1] | binding result [2] | Binder |
| --- | --- | --- |
| binds |  | purified TRIP-Br1 (His-tagged at both N and C termini) (natural protein, human, UniProt Q9UHV2 1-236, looked up, TRIP-Br1 (SERTAD1), human, cDNA amplified from Calu-3 cells; The methods call it His-TRIP-Br1; the legends say His-tagged at both termini; also called His-TRIP-Br1; source: E. coli BL21 (codon plus), purified (Ni-NTA); not shown: His, N-terminal, kept; His, C-terminal, kept) MLSKGLKRKREEEEEKEPLAVDSWWLDPGHTAVAQAPPAVASSSLFDLSVLKLHHSLQQSEPDLRHLVLVVNTLRRIQASMAPAAALPPVPSPPAAPSVADNLLASSDAALSASMASLLEDLSHIEGLSQAPQPLADEGPPGRSIGGAAPSLGALDLLGPATGCLLDDGLEGLFEDIDTSMYDNELWAPASEGLKPGPEDGPGKEEAPELDEAELDYLMDVLVGTQALERPPGPGR |
|  | binds | GST-TRIP-Br1 fusion protein (full-length TRIP-Br1 fused with GST) (natural protein, human, UniProt Q9UHV2 1-236, looked up, also called Sertad1; SEI-1; source: E. coli BL21 codon plus, purified (glutathione-Sepharose)) MLSKGLKRKREEEEEKEPLAVDSWWLDPGHTAVAQAPPAVASSSLFDLSVLKLHHSLQQSEPDLRHLVLVVNTLRRIQASMAPAAALPPVPSPPAAPSVADNLLASSDAALSASMASLLEDLSHIEGLSQAPQPLADEGPPGRSIGGAAPSLGALDLLGPATGCLLDDGLEGLFEDIDTSMYDNELWAPASEGLKPGPEDGPGKEEAPELDEAELDYLMDVLVGTQALERPPGPGR |
